From the supplement of paper PMC9112550, “Optimization of the antimicrobial peptide Bac7 by deep mutational scanning” (BMC Biology, 2022) come the findings set out here.

This data set deals with Escherichia coli TOP10. As to the kind of experiment: shrunken log2 fold change of peptide-encoding DNA abundance (4.5 h post-induction vs induction); higher = less antimicrobial activity (less host growth inhibition). To be noted: time post-induction: 4.5 h; library: site-saturation at positions 5, 18, 19, 20.
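Further: peptides expressed intracellularly from a pBAD plasmid library in pooled LB shake-flask culture, induced with 0.3% L-arabinose, DNA abundance read by NGS, three biological replicates, DESeq2 with apeglm shrinkage.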

Take RRIRWRPPRLPRPRPRPQPLPRP: the “shrunken log2 fold change” value is -0.0153. For the sequence RRIRTRPPRLPRPRPRPVPQPRP, the “shrunken log2 fold change” value was 0.00694.

As for RRIRRRPPRLPRPRPRPWIEPRP, the “shrunken log2 fold change” value was -0.0568. RRIRPRPPRLPRPRPRPNSTPRP: the “shrunken log2 fold change” value was -0.23. RRIRSRPPRLPRPRPRPINQPRP: the “shrunken log2 fold change” value is -0.657. For RRIRKRPPRLPRPRPRPQWFPRP the value was -0.185. For RRIRGRPPRLPRPRPRPTCHPRP, the “shrunken log2 fold change” value was found to be 0.893. Consider RRIRPRPPRLPRPRPRPDDAPRP, for which the “shrunken log2 fold change” value was -0.0674. RRIRTRPPRLPRPRPRPLPEPRP: the “shrunken log2 fold change” value is 0.126.

Regarding RRIRHRPPRLPRPRPRPIRAPRP, the “shrunken log2 fold change” value worked out at 0.0218. To RRIRDRPPRLPRPRPRPWVYPRP belongs -0.0138; to RRIRMRPPRLPRPRPRPKTEPRP, 0.155; to RRIRDRPPRLPRPRPRPPEKPRP, 0.106.

Take RRIRTRPPRLPRPRPRPYYAPRP: the “shrunken log2 fold change” value was -0.489.

In the case of RRIRLRPPRLPRPRPRPGDVPRP, the “shrunken log2 fold change” value stood at 0.0737. With RRIRCRPPRLPRPRPRPIHYPRP, the “shrunken log2 fold change” value was -0.95. To RRIRNRPPRLPRPRPRPIVDPRP belongs -0.139; to RRIRNRPPRLPRPRPRPCSPPRP, -0.354. Turning to RRIRARPPRLPRPRPRPIAYPRP, the “shrunken log2 fold change” value was 0.21. With RRIRRRPPRLPRPRPRPLNNPRP, the “shrunken log2 fold change” value is -0.338. For RRIRNRPPRLPRPRPRPMGCPRP the value was -0.187; for RRIRGRPPRLPRPRPRPFWTPRP, 0.0497; for RRIRCRPPRLPRPRPRPEHCPRP, -0.0294. As for RRIRKRPPRLPRPRPRPSSWPRP, the “shrunken log2 fold change” value is 0.147.

For the sequence RRIRQRPPRLPRPRPRPWLGPRP, the “shrunken log2 fold change” value was -0.0417. In the case of RRIRHRPPRLPRPRPRPWHLPRP, the “shrunken log2 fold change” value was -1.9. RRIRGRPPRLPRPRPRPGHTPRP: the “shrunken log2 fold change” value was 0.0237. On to RRIRWRPPRLPRPRPRPTCHPRP, for which the “shrunken log2 fold change” value came out at 0.228. Turning to RRIRLRPPRLPRPRPRPTLWPRP, the “shrunken log2 fold change” value was 0.284. In the case of RRIRNRPPRLPRPRPRPPHDPRP, the “shrunken log2 fold change” value stood at 0.114. Consider RRIRDRPPRLPRPRPRPVNLPRP, for which the “shrunken log2 fold change” value was found to be 0.0119.

Turning to RRIRYRPPRLPRPRPRPPKRPRP, the “shrunken log2 fold change” value is -0.121. To RRIRGRPPRLPRPRPRPIAHPRP belongs 0.334; to RRIRQRPPRLPRPRPRPGYNPRP, -0.185; to RRIRYRPPRLPRPRPRPNRPPRP, 0.000655. On to RRIRERPPRLPRPRPRPEFYPRP, for which the “shrunken log2 fold change” value was -0.377. Regarding RRIRTRPPRLPRPRPRPHTPPRP, the “shrunken log2 fold change” value was 0.0178.

Turning to RRIRGRPPRLPRPRPRPDGWPRP, the “shrunken log2 fold change” value is 1.34. In the case of RRIRPRPPRLPRPRPRPWYPPRP, the “shrunken log2 fold change” value is -0.119. Take RRIRIRPPRLPRPRPRPMGVPRP: the “shrunken log2 fold change” value was -0.0148.

On to RRIRYRPPRLPRPRPRPDFLPRP, for which the “shrunken log2 fold change” value was -0.542.

RRIRVRPPRLPRPRPRPFRNPRP: the “shrunken log2 fold change” value is -0.0529. With RRIRTRPPRLPRPRPRPRHIPRP, the “shrunken log2 fold change” value was -0.158. RRIRMRPPRLPRPRPRPGCFPRP: the “shrunken log2 fold change” value is 0.773.

As to RRIRSRPPRLPRPRPRPKQYPRP, the “shrunken log2 fold change” value was -0.361. On to RRIRLRPPRLPRPRPRPFEHPRP, for which the “shrunken log2 fold change” value was determined as 0.0204.

Consider RRIRRRPPRLPRPRPRPQKKPRP, for which the “shrunken log2 fold change” value is -0.0695. Turning to RRIRARPPRLPRPRPRPKEHPRP, the “shrunken log2 fold change” value turned out to be 0.217. Turning to RRIRERPPRLPRPRPRPPQMPRP, the “shrunken log2 fold change” value stood at 0.208. For RRIRYRPPRLPRPRPRPQANPRP the value was -0.694; for RRIRHRPPRLPRPRPRPRLKPRP, -0.0285. To RRIRDRPPRLPRPRPRPDWDPRP belongs 4.78; to RRIRYRPPRLPRPRPRPQCWPRP, -0.321; to RRIRQRPPRLPRPRPRPQWPPRP, 0.239.

In the case of RRIRPRPPRLPRPRPRPLIDPRP, the “shrunken log2 fold change” value was -0.0112. For RRIRCRPPRLPRPRPRPMMIPRP, the “shrunken log2 fold change” value is -0.044. For RRIRPRPPRLPRPRPRPGYVPRP the value was -0.401; for RRIRLRPPRLPRPRPRPKEQPRP, 0.0445; for RRIRWRPPRLPRPRPRPLNCPRP, -0.0452.

For RRIRLRPPRLPRPRPRPRNWPRP, the “shrunken log2 fold change” value was 0.751. As for RRIRYRPPRLPRPRPRPDDVPRP, the “shrunken log2 fold change” value turned out to be 0.0235. As for RRIRWRPPRLPRPRPRPHVDPRP, the “shrunken log2 fold change” value is -0.127. Regarding RRIRMRPPRLPRPRPRPCGCPRP, the “shrunken log2 fold change” value was determined as 0.0371.

In the case of RRIRLRPPRLPRPRPRPNPNPRP, the “shrunken log2 fold change” value came to 0.395. For the sequence RRIRFRPPRLPRPRPRPRIWPRP, the “shrunken log2 fold change” value was found to be 0.051. For RRIRIRPPRLPRPRPRPLKDPRP the value was -0.0958; for RRIRKRPPRLPRPRPRPMMLPRP, -0.0136; for RRIRPRPPRLPRPRPRPQMSPRP, 0.0674. For RRIRARPPRLPRPRPRPQFAPRP, the “shrunken log2 fold change” value worked out at 0.402. Consider RRIRERPPRLPRPRPRPKTAPRP, for which the “shrunken log2 fold change” value was -0.0233. Turning to RRIRSRPPRLPRPRPRPGMNPRP, the “shrunken log2 fold change” value is -0.249.

Regarding RRIRTRPPRLPRPRPRPHSHPRP, the “shrunken log2 fold change” value is -0.626.
